T1: cEYFP-PhBSβ (PhBSβ tagged at its N-terminus with the C-terminal half of EYFP) (Petunia hybrida)
T1 construct: BiFC construct, transiently expressed in Nicotiana benthamiana leaves; not shown: C-terminal half of enhanced yellow fluorescent protein (cEYFP) of plasmid pCNHP-cYFP-C
T1 chain: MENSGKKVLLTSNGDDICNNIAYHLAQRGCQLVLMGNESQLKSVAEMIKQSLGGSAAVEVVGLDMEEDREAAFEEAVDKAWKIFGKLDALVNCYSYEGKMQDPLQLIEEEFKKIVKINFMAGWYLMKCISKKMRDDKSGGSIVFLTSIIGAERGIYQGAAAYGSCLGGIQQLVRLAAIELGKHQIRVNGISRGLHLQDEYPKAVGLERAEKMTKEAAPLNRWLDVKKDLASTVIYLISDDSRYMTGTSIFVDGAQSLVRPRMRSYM

B1: MBP-PhBSα (maltose binding protein-tagged alpha subunit of Petunia hybrida benzaldehyde synthase) (enzyme, not shown: large carriers)
chain: MEKQTQARFLEPWRDLKGKVVMVTGASSGIGLDLCLDLAKAGCKIIAAARRVDRLKSLCNQINAAADDDDDNNRAVAVELDVSANGDAIEAAVKEAWGAFGRIDALVNNAGVRGTVHSPLELTEEECHNTFRTNLTGTWLVSKYVCKFMRDAKQGGSVINISSIAGLNRGQLPGGLAYVSSKGAVNMVTKVMALELGVDKIRVNSISPGLFKSEITQGLIQKEWLNNVAMRTIPLRTHGNSADPALTSVVRYLIHDSSEYVSGNLFIVDAGATLPGVPIFSSL
notes: Coding region amplified from petunia petal cDNA, expressed in E. coli from pMAL-c5X, purified on amylose resin; also called MBP-tagged α-subunit; MBP-PbBSα

Assays:
[1] = molecular target: the molecule itself; test: size exclusion chromatography (Superdex 200 Increase 10/300 GL), about 1 mg/mL; self-association
Method: (§1) 500 μL purified protein (˜ 500 μg) were loaded onto a Superdex 200 Increase 10/300 GL size exclusion column and eluted with PBS. The column was calibrated with the following markers: bovine thyroglobulin (670 kDa), bovine gamma globulin (158 kDa), chicken ovalbumin (44 kDa), horse myoglobulin (17 kDa), and vitamin B-12 (1.4 kDa).

[2] = molecular target: T1, cEYFP-PhBSβ (PhBSβ tagged at its …); test: bimolecular fluorescence complementation (BiFC) in Nicotiana benthamiana leaves, confocal microscopy
Method: The resulting constructs were used for transient expression in N. benthamiana leaves.
Transformation of constructs into A. tumefaciens and infiltration of cell cultures in tobacco leaves were performed as described above except that the final OD₆₀₀ of the culture was adjusted to 0.6. […] 48 hours after infiltration, the fluorescent signals in the leaves were imaged using a Zeiss LSM-880 laser-scanning confocal microscope (Zeiss, Thornwood, NY, USA).

[3] = molecular target: B1; test: size exclusion chromatography (Superdex 200 Increase 10/300 GL), about 1 mg/mL
Method: as §1

| binding result [2] | binding result [3] | Binder | binding result [1] |
| --- | --- | --- | --- |
| – | – | MBP-tagged PhBSβ (beta subunit of Petunia hybrida benzaldehyde synthase) (enzyme, not shown: large carriers, Purified recombinant subunit from E. coli (pMAL-c5X, amylose resin); also called PtBSβ) MENSGKKVLLTSNGDDICNNIAYHLAQRGCQLVLMGNESQLKSVAEMIKQSLGGSAAVEVVGLDMEEDREAAFEEAVDKAWKIFGKLDALVNCYSYEGKMQDPLQLIEEEFKKIVKINFMAGWYLMKCISKKMRDDKSGGSIVFLTSIIGAERGIYQGAAAYGSCLGGIQQLVRLAAIELGKHQIRVNGISRGLHLQDEYPKAVGLERAEKMTKEAAPLNRWLDVKKDLASTVIYLISDDSRYMTGTSIFVDGAQSLVRPRMRSYM | binds |
| binds | – | nEYFP-PhBSα (PhBSα tagged at its N-terminus with the N-terminal half of EYFP) (other, BiFC construct, transiently expressed in Nicotiana benthamiana leaves; not shown: N-terminal half of enhanced yellow fluorescent protein (nEYFP) of plasmid pCNHP-nEYFP-C) MEKQTQARFLEPWRDLKGKVVMVTGASSGIGLDLCLDLAKAGCKIIAAARRVDRLKSLCNQINAAADDDDDNNRAVAVELDVSANGDAIEAAVKEAWGAFGRIDALVNNAGVRGTVHSPLELTEEECHNTFRTNLTGTWLVSKYVCKFMRDAKQGGSVINISSIAGLNRGQLPGGLAYVSSKGAVNMVTKVMALELGVDKIRVNSISPGLFKSEITQGLIQKEWLNNVAMRTIPLRTHGNSADPALTSVVRYLIHDSSEYVSGNLFIVDAGATLPGVPIFSSL | – |
| – | – | B1 | binds |
| – | binds | MBP-tagged AtBSβ (beta subunit of Arabidopsis thaliana benzaldehyde synthase) (enzyme, not shown: large carriers, Purified recombinant subunit from E. coli; CDS amplified from flower cDNA (gene AT3G01980)) MENPAKRVLMTSNGDEVSRNIAFHLAKHGCKLVMMGNEGSLRSIVDKIRDSIEGAFPADVIALDMESDSEVAFHAAVQKAWELSGHFDAFLNSYTYQGKVQDILQVSQDEFHRITKINLTAPWFLLKAVATRMKDHGSGGSIVFMATIASGERALYPGADAYASTSAAIHQLVRASAMSLGKHKIRVNMISRGLHLDDEYTASVGRDRAQKLVKDAAPLGQWLNPDTDLYSTVIYLISDGSRFMTGTTVLVDGAQSLTRPRLKSYM | binds |

Source: patent US20250034601A1 (PURDUE RESEARCH FOUNDATION, published 2025)
